The source of these data is the DeepSol protein solubility set.

The nature of the series: soluble on expression in E. coli; label from the status in PepcDB or PDB records.
On to “MLHVAGRIEDYALIGDMQIAALVCQDGTVDWLCLPRFDSHAVFAGLLGTEEHGFWRLGPAHASDAEPPRASRRTYRGDSLILESEWDTPRGTVRVTDFMPPRDGAPQLIRIVEGVTGRVPMRSALRMRFSYGLEHHHHHH”, for which the “soluble on expression in E. coli” value is “not soluble”.

“MAHHHHHHMFCNLNVCLAFLSSQYGKENMNARKPLAVSAGTNSRSGEGDWKSTMRSFREGVRCLGEENEALRTVRSDLDAISRKLTEKMNSLVEENGSFHKSMSTLLDDERRKVSIITDQNENLLHKLEELRKEYDDANKEISRLTDLVHTEKSRNNSVVGLFEKKLAEKEDEYQTELRLREQSLEKLKTQLEEKCSAYEAQLTDRDNLLQTERCQWKLQKEVYEKEIERLLSQVGKFAITQRSSSQQSTLGVDVAHAKPPLAPVPPPAPTDEEGDRAVVKKRRLEAVRQQRRLKENDKNDI”: the “soluble on expression in E. coli” value is recorded as “not soluble”.

For the sequence “MTYKELATFLKVLSDSSRLEILDLLSCGELCACDLLAHFQFSQPTLSYHMKALVKTNLVTTRKIGNKHLYQLNHNIFESVINNLSKVHTSNQRCICHNLKTGEC”, the “soluble on expression in E. coli” value was “not soluble”. For “MSLKITSVRSFLLSYPLPEPVRLPFHGGERTILKRDAMFIRVEADSGLIGYAPGPGSEQAHKAIQQTIAPFLEDRVLADPDALRVLFLQGPGIDAELAKIYCAVEIALYDLVGKARGIPISEMIGGRVRDTIRLYGSAGMYMSPEGYAAEAAAIAALGFRAYKMRPAGGPEQDLETVRQMRKAVGPDFDLMVDAHTWWRMGDSSYPADTVEQLARDMSAYHIAWLEEPLPPDDHAGYLALKQKDLVLLATGEHEPNEDRYLDLILTQAVDYIQMDVCCQGGYALGRRLFAEIARQGLSFAFHSWGTALEVMAAAHLGICWPQMIAEWLEYPCYSSPGRVGMYPFPLAAEILTEPLEIERGDLLVPRAPGLGVAVDESVIERYPWIPGPWSYFRIDSPAENRAVTSDHSVQWDPEAKEGHHHHHH”, the “soluble on expression in E. coli” value is recorded as “soluble”. As for “MEDEIKSFEKDRNLIIEDSKNSKNNIVDVQKLIEALKDEKNAKNIVVDFTEYNPLHNGHKYCMDFGKSEGLFISVIPGPLERSGRGIPYLVNRHIRAEMALLAGADLVVEGPPMGIMGSGQYMQCLIKIFSALNGDIIPRGYIEEETMERVINSINNGNHIKIKPYNISCIETREKLGEKLEIDNYVIASMSYTIYKLKENFPKWNPKFKFIERIEGISGTKIREGVFNNNFESIKHMLPITTIDVFKNFGDNLSEIILKRNEEMVLDTVNNFDLNKYLPENISEKLNEKEYYESIEEIKEYIPRGFSKNNIERTISKLEARIEKETISKYIENYPANLRILNGINNHE”, the “soluble on expression in E. coli” value is “not soluble”. For “MGSDKIHHHHHHMIDLQEILANMNPNQKINYDRVMQQMAKVWEKESVRPSILMHVCCAPCSTYTLEYLTQFADITVYFANSNIHPKDEYHRRAYVTQQFVSEFNAKTGNTVQFLEADYVPNEYVRQVRGLEEEPEGGDRCRVCFDYRLDKTAQKAVELGFDYFASALTISPHKNSQTINDVGIDVQKVYTTKYLPSDFKKNNGYRRSVEMCEEYDIYRQCYCGCVYAAKMQGIDLVQVKKDAKAFMADKDLDNDFTHIRFSYRGDEM”, the “soluble on expression in E. coli” value was “not soluble”. As to “WYGSPQFDGKYVHWDHPLLPHWDPKVASSYSTGRHQPPEDIGANFYPALGPYSSRDPAVLEEHMRQLRMAAVGVLAVSWYPRSMKDDNGEEIDSLLPLILDAADKYQLKVLYNLYVFKNVICINKYV”, the “soluble on expression in E. coli” value is “soluble”. As for “MTDIIIVHSKHGNSKNHWYEWLRHNLTLEGYDVSLFNLEANDHAQIDEWVNEMKQQLHIRKKDTYFVTHGFGSIAALKFLEETHHHIEGFFSIAGFKEDAQDIDEDVDLKGVTIDYDKIKEQVDKFYGLTSKDDQYVSYKETQRLMNSLNGHTRVVEDGGHFLEEEGFVTFTSLINRMQGYMTRLEHHHHHH”, the “soluble on expression in E. coli” value is recorded as “not soluble”.

As for “MGSDKIHHHHHHMAESETGDKAGQASVKTALRVIEIMEIYAREGRSLTLTELAKLLGAPMSSCLGLIRTLASLGYLYETGRRQGYYPTSRLLNIAQRISRNDPLLERVQPVLETLRDATGETVIFGKLQDDGRVLYLEVRESQNPVRYTATPGELRDVHINSIGRAILGAMTDAARDAALAKVSFQPRTGRTVASREALEREIAMWQQQGWYPNFGESFPDLGAIAVPVEIGGAVYGMSVAGPIHRVESSVDPIVAALLRGQDALRT”, the “soluble on expression in E. coli” value is given as “not soluble”. Turning to “AHHHHHHGSILEKAREILEEHQLCNHCLGRLFGKLGKGTNEERGRAIRLLLSMETGKEYKEPEKCELCGGVFNNLDKFAELCIKAAEGIEFETFWVGSRFPEEIEKKEEEIWRKFRVVSGEKITKEFNRELGKVIAVRYGKTPVKERPDVVFIVEPFSEKVELQVNPIYVAGRYRKLIRGIPQTPAPGFKESIATIICRAFKKHFHGKCIFKGAGREDVDVRMLGNGRPFVVEIKRPRKRKVNLKDIEEEINQSGKVEVLNLRFITPEEAERILTTRHRKVYEAIVYVKDGITKEEVEKVVKSLKNAEIKQRTPRRVLNSRADLVRVRKVYDVKGELIDDKHFKLRLVTDGGLYIKELISGDRGRTTPSVSEILGKEAWCEILDVLEVLDDVEGDN”, the “soluble on expression in E. coli” value was “soluble”. With “SLNEVQQAVDMQRRQLLQRLGKDFDPSMLDDKLLKEAALKGLIERTLLLQAAKDDKFAFSDQALDQLILQTPEFQVDGKFNADRFDQVIRQMNYSRMQFRQMLGQEMLIGQLRAGLAGTGFVTDNELQSFARLEKQTRDFATLAIKADASKSSVSDDEVKAFYEGHKSEFMTPEQVVVEYVELKKSSFFDQVKVKQEDLEALYQKEIANLSEQRDAAHILIEVNDKVGDEQAKAKIDEIKARLAKGEDFAALAKEFSQDIGSAATGGDLGYAGRGVYDPAFEEALYALKQGEVSAPVKTPYGYHLIKLLGVQAPEVPSLESLKPKLEDELKKQMVEQRFVEATKDLESSAYEAADLSQPAQEMGLKVQTSQPFGRSGGDGIAANRQIVQTAFSAEVLEEAANSGAIELDPDTVVVLRVKEHNKPKEQPLEQVAANIRERLAAEKAAEEAQKRGEALIAELREGRTSSAAGESWKVVEAASRGHEGVDPKLLQAVFRMQRPEAKDKPSFSGVTLANGDYVVIRLNGVSEPEEAISDDEKAMYRRFLASRSGQADFAAFRRQLQD”, the “soluble on expression in E. coli” value is listed as “not soluble”. With “MHVNKKIIYVSHDAHFHGAQLLSLHTIKALKENFHYSVAIISIRTGILIHDFQKYGPVYCLEEDYPTENKVESLIKKLLSQDYTIAICSTVISGDIVALLAKHNIKVISLIHELPHLIQQYSAEGKARKIAESAHKIVFPSQYVYEKFHTITQLDHQKCHILPQGLFNHNPYKNNIAKARNELRKKHNLPLDSKIILGVGFADHRKGIDLFSLIAYSVRKIHKNIHFIWVGKTDVHFLNTLSQRYTAHFTLVEPTPDIGLYNAGADLYLLTSREDPFPNVVLEALDTKVPVIGFKNAGGFGDVVTEQTGALVDYLNLPMMLEKIYEFIGDEDLRLQKGTFGQELIEKNFNFLHYIYQLLNLLEHNYKKISVIVPNYNYEKYLSERVKSILNQTYPLYELIFLDDASTDNSVSIFEKLLSNENKHHLKIQQIINDKNSGSVFKQ” the entry was “not soluble”; with “MGSDKIHHHHHHMAEKTFINRLQLTDFRNYGSASLRLDGRHVVLTGNNGSGKTNLMEAVSFLSPGRGLRRAVLSDVARAGAASGFSIFASLEGMAGDVELGTGSEVLDETAVRRLRINGASVRSVDELTDHLRVLWLTPAMDGLFTGSSSERRRFLDRLVLSIDPQHGRRASDFERAMRSRNKLLSEGRFDASWLAGIEQQMAALGIAMALARQEMMRLLAALIEQRREPETFPGADLMLSGFMDEHAGTAAIDLEDTYRDSLAGSRGRDAAAGRTLEGPHRSDLLVRHREKDMEAERCSTGEQKALLIGLILAHAELVATMTGFAPILLLDEIAAHLDEGRRAALFDRIDVLGGQAFMTGTDAQMFASLGDRAQFVTVDDGHLSL”, “not soluble”. For the sequence “MSNEQPNNPLHGLSLEKIVTRLVEHFGWNGLYERVRVNCFKKDPSIKSSLKFLRKTQWARDKVEALYIETFCLEHHHHHH”, the “soluble on expression in E. coli” value was “not soluble”. Turning to “MFKILLALCIVGCSFAAPIHGDVDDELLGLAWEAAATSVNNGNRGKFWVPIEIQSSDKNGAVTNLVVVFQESWCSVEEGNDLEDVCESMCPVYYGGAKATYRVTATESNGGSDFESVRIE”, the “soluble on expression in E. coli” value was “not soluble”. As for “MSLTHTSDKHVTDEELELVTRGKADGIYMKAPNGSPTSLNERQWVQVRTRAFKNWFGDWENVPEAASRIPDDKYGNEQWTEEGYVYDLYVNSRNPFDPKDGQAVKKILQSLGSEIPVLSFYGGKGGTVSPEKALELASSKRNCWMLTETPEFLSKVREAGYDGLVGYDEGVKYIAVMSPGQLKDAYENTGAFSTSNDDIRFRQVYHGSPASLGHFDHAFTGTGEGAQAYGWGTYVTEVKGIARKYAAIGIKRGNHITYDGEPLSPVLDNEYYFDEVWRIWKRQILSSTDVDSLKRNISSVYMDGRTASAYSGRRKAFERQKQELLSDIDAGRIRIEPPRHLYTVEIPEDNGMNYLYWDRPVSAEQQGKIFLQLRKERFFFPEATAEFWSGRSHVWNSGKEFYGFLDYMFMNPDRDTDSQRLASGFLSRAGFTGIDYPAECSTGGRADGARNYVIFSEADLKITAHERFRFIGEKGASRLDRSEGASLRLENLAVAREMEKSGKDAGTIKAATGWERGADSKWRYETADFEYHPAGDLGYSRLLEKQSWHGELENLLDRQIEGETLSEAEWKRFEKLTELAAGLKEQDALRERIYLDDYVKDDELFQAYPEMKRTRLEFVDLPSADYCGGYLHPDNRIVINISRTDDVRSVLAHEIQHAIQTMEGFARGSNPGEFKNTVENVILDIVRATDGRILEGGGFDNTPKGIFAALDRKVPYGTILRHYDYPLSLVAEKYGYENIFDLVNDIGRFKSGIQEYRSTAGEVEARNVESRLDFTSAQRRNTLAVSTEDIARNGQIFLSRDVRMDELARHVSFLAGKLHIPVEVIRHADEVGSPDIRGLLSCGKDIRGWYDIPSQRVCLYLPHVRGKADVERTLLHEGVAHYGLRKLAGHKHMDAFLDDIFNGCGEKVRDEILRMAAADRTDIRVATEEYLARMAEDGTDQSLWDRIVTAFRNLLRKLGFCLEIGTRELRGILAASRKNLIGIAEPTVIQTARGDLELSCGYGRAVLRRQGVETDVTSLLERMRKAGISPASLGQEDWKAVFNGGIILPGGRKLMAVREPAGYGMRISGVSPGSTREGHHHHHH”, the “soluble on expression in E. coli” value is “soluble”.
